Laboratory results reported in IntAct's records for PubMed 25517094.

B1: Muscarinic acetylcholine receptor M4 (Homo sapiens), P08173 (parent)
chain: MANFTPVNGSSGNQSVRLVTSSSHNRYETVEMVFIATVTGSLSLVTVVGNILVMLSIKVNRQLQTVNNYFLFSLACADLIIGAFSMNLYTVYIIKGYWPLGAVVCDLWLALDYVVSNASVMNLLIISFDRYFCVTKPLTYPARRTTKMAGLMIAAAWVLSFVLWAPAILFWQFVVGKRTVPDNQCFIQFLSNPAVTFGTAIAAFYLPVVIMTVLYIHISLASRSRVHKHRPEGPKEKKAKTLAFLKSPLMKQSVKKPPPGEAAREELRNGKLEEAPPPALPPPPRPVADKDTSNESSSGSATQNTKERPATELSTTEATTPAMPAPPLQPRALNPASRWSKIQIVTKQTGNECVTAIEIVPATPAGMRPAANVARKFASIARNQVRKKRQMAARERKVTRTIFAILLAFILTWTPYNVMVLVNTFCQSCIPDTVWSIGYWLCYVNSTINPACYALCNATFKKTFRHLLLCQYRNIGTAR
B2: "D(4) dopamine receptor" (Mus musculus), P51436 (parent)
chain: MGNSSATEDGGLLAGRGPESLGTGAGLGGAGAAALVGGVLLIGLVLAGNSLVCVSVASERTLQTPTNYFIVSLAAADLLLAVLVLPLFVYSEVQGGVWLLSPRLCDTLMAMDVMLCTASIFNLCAISVDRFVAVTVPLRYNQQGQCQLLLIAATWLLSAAVASPVVCGLNDVPGRDPAVCCLENRDYVVYSSVCSFFLPCPLMLLLYWATFRGLRRWEAARHTKLHSRAPRRPSGPGPPVSDPTQGPFFPDCPPPLPSLRTSPSDSSRPESELSQRPCSPGCLLADAALPQPPEPSSRRRRGAKITGRERKAMRVLPVVVGAFLVCWTPFFVVHITRALCPACFVSPRLVSAVTWLGYVNSALNPIIYTIFNAEFRSVFRKTLRLRC
B3: "D(3) dopamine receptor" (Homo sapiens), P35462-1 (parent)
chain: MASLSQLSGHLNYTCGAENSTGASQARPHAYYALSYCALILAIVFGNGLVCMAVLKERALQTTTNYLVVSLAVADLLVATLVMPWVVYLEVTGGVWNFSRICCDVFVTLDVMMCTASILNLCAISIDRYTAVVMPVHYQHGTGQSSCRRVALMITAVWVLAFAVSCPLLFGFNTTGDPTVCSISNPDFVIYSSVVSFYLPFGVTVLVYARIYVVLKQRRRKRILTRQNSQCNSVRPGFPQQTLSPDPAHLELKRYYSICQDTALGGPGFQERGGELKREEKTRNSLSPTIAPKLSLEVRKLSNGRLSTSLKLGPLQPRGVPLREKKATQMVAIVLGAFIVCWLPFFLTHVLNTHCQTCHVSPELYSATTWLGYVNSALNPVIYTTFNIEFRKAFLKILSC

Variants of: B1
Conditions: with SH3GL1, Q99961-1
Target sequence in this assay (Q99961 whole entry): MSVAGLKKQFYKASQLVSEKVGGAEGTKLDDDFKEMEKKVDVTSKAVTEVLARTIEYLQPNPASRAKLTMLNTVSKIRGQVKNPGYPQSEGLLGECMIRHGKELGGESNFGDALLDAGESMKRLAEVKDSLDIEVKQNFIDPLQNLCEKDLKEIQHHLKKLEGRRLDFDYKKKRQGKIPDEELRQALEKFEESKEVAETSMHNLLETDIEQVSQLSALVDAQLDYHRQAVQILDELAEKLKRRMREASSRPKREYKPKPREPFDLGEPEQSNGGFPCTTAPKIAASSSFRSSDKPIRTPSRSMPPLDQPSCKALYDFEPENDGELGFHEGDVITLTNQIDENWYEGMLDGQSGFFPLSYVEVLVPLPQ

Q: For K255E;K256E, which “effect of a mutation on the interaction” value is on record?
A: decreasing interaction strength

Q: R230E was tested. Which “effect of a mutation on the interaction” value did it give?
A: decreasing interaction strength

Q: With P330E as the variant, how does the “effect of a mutation on the interaction” value read?
A: decreasing interaction strength

Variants of: B2
Conditions: with SH3GL1, Q99961-1
Target sequence in this assay (Q99961 whole entry): as above

Q: With P230A;P233A as the variant, how does the “effect of a mutation on the interaction” value read?
A: decreasing interaction strength

Q: R231D;R232E was tested. Which “effect of a mutation on the interaction” value did it give?
A: disrupting interaction strength

Variants of: B3
Conditions: with SH3GL1, Q99961-1
Target sequence in this assay (Q99961 whole entry): as above

Q: With R318E as the variant, how does the “effect of a mutation on the interaction” value read?
A: decreasing interaction strength

Q: How did the “effect of a mutation on the interaction” value turn out when K293E was run?
A: decreasing interaction strength
